Assay results taken from patent US20150283262A1 (AstraZeneca / MedImmune, published 2015).
Read-outs that look alike come from different tables or passages of the source.

Key:
Experiment in all cases: cell-based or functional assay
[1] = molecular target: T1, CD19 on CD19 +ve cell lines (Daudi, Ramos, WSU-DLCL2) (human, UniProt P15391 20-556)
T1 sequence (looked up): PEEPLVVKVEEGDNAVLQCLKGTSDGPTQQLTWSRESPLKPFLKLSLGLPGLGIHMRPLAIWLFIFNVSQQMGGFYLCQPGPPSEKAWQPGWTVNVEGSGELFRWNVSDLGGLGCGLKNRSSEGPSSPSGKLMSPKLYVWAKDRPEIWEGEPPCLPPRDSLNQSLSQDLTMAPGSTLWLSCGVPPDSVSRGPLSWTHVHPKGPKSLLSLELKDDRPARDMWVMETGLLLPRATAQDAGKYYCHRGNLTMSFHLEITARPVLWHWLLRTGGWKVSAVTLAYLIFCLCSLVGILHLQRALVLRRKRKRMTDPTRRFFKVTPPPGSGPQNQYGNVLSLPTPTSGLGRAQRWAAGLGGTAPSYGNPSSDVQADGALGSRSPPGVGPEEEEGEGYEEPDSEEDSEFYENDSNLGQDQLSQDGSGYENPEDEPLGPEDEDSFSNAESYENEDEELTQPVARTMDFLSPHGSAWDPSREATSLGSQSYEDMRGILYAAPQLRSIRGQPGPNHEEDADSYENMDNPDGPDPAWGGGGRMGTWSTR

[2] = molecular target: T1, CD19 on CD19 +ve cell lines (Daudi, …); remark: listed apart in the source
[3] = molecular target: T1, CD19 on CD19 +ve cell lines (Daudi, …); remark: listed apart in the source

B1: RB4v1.2-A (anti-CD19 antibody RB4v1.2 conjugated to PBD drug linker A) (antibody, DAR 2.2, V domains shown)
VH: QVQLVQPGAEVVKPGASVKLSCKTSGYTFTSNWMHWVKQAPGQGLEWIGEIDPSDSYTNYNQNFQGKAKLTVDKSTSTAYMEVSSLRSDDTAVYYCARGSNPYYYAMDYWGQGTSVTVS
VL: EIVLTQSPAIMSASPGERVTMTCSASSGVNYMHWYQQKPGTSPRRWIYDTSKLASGVPARFSGSGSGTSYSLTISSMEPEDAATYYCHQRGSYTFGGGTKLEIK
modifications: PBD dimer drug linker A attached to cysteine thiols after TCEP reduction; positions not given; DAR 2.2 for the whole ADC
- EC50 (µg/mL), in vitro cytotoxicity, Alamar Blue cell survival, Daudi cells [1]: 0.00112 µg/mL
- EC50 (µg/mL), in vitro cytotoxicity, Alamar Blue cell survival, Ramos cells [1]: 0.00102 µg/mL
- EC50 (µg/mL), in vitro cytotoxicity, Alamar Blue cell survival, WSU-DLCL2 cells [1]: 0.117 µg/mL

B2: RB4v1.2-E (anti-CD19 antibody RB4v1.2 conjugated to PBD drug linker E) (antibody, DAR 1.93, V domains shown)
VH: QVQLVQPGAEVVKPGASVKLSCKTSGYTFTSNWMHWVKQAPGQGLEWIGEIDPSDSYTNYNQNFQGKAKLTVDKSTSTAYMEVSSLRSDDTAVYYCARGSNPYYYAMDYWGQGTSVTVS
VL: EIVLTQSPAIMSASPGERVTMTCSASSGVNYMHWYQQKPGTSPRRWIYDTSKLASGVPARFSGSGSGTSYSLTISSMEPEDAATYYCHQRGSYTFGGGTKLEIK
modifications: PBD dimer drug linker E attached to cysteine thiols after TCEP reduction; positions not given; DAR 1.93 for the whole ADC
- EC50 (µg/mL), in vitro cytotoxicity, Alamar Blue cell survival, Daudi cells [2]: 0.00122 µg/mL
- EC50 (µg/mL), in vitro cytotoxicity, Alamar Blue cell survival, Ramos cells [2]: 0.00147 µg/mL
- EC50 (µg/mL), in vitro cytotoxicity, Alamar Blue cell survival, WSU-DLCL2 cells [2]: 0.031 µg/mL

B3: RB4v1.2-D (anti-CD19 antibody RB4v1.2 conjugated to PBD drug linker D) (antibody, DAR 2.18, V domains shown)
VH: QVQLVQPGAEVVKPGASVKLSCKTSGYTFTSNWMHWVKQAPGQGLEWIGEIDPSDSYTNYNQNFQGKAKLTVDKSTSTAYMEVSSLRSDDTAVYYCARGSNPYYYAMDYWGQGTSVTVS
VL: EIVLTQSPAIMSASPGERVTMTCSASSGVNYMHWYQQKPGTSPRRWIYDTSKLASGVPARFSGSGSGTSYSLTISSMEPEDAATYYCHQRGSYTFGGGTKLEIK
modifications: PBD dimer drug linker D (iodoacetamide) attached to cysteine thiols after TCEP reduction; positions not given; DAR 2.18 for the whole ADC
- EC50 (µg/mL), in vitro cytotoxicity, Alamar Blue cell survival, Daudi cells [3]: 0.00102 µg/mL
- EC50 (µg/mL), in vitro cytotoxicity, Alamar Blue cell survival, Ramos cells [3]: 0.000798 µg/mL
- EC50 (µg/mL), in vitro cytotoxicity, Alamar Blue cell survival, WSU-DLCL2 cells [3]: 0.0219 µg/mL
